Experimental data from patent US20240325526A1.
Blank lines part the entries; values can stand above or below the molecule they belong to.

Legend:
[1] = biological target: IL1B_FL (Mus musculus wild-type pro-IL1β) (Mus musculus) (UniProt P10749); test: cell-based or functional assay
[2] = biological target: hIL1B_FL (human wild-type pro-IL1β)
[3] = biological target: T1, IL1B_FL (Mus musculus wild-type pro-IL1β)
T1 chain: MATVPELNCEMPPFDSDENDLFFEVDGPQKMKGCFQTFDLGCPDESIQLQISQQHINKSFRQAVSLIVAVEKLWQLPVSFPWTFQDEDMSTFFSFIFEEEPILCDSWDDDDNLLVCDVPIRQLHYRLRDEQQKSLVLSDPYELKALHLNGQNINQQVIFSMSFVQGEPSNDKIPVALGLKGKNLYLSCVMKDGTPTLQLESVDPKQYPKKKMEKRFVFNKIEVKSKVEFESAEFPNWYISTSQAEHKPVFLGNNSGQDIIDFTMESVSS

potency against CASP1 WT; IL-1β and LDH activity in supernatants of B16-F10 cells co-transfected with pro-IL1β plasmid [1]: 30 fold
Molecule: CASP1_RV2 (constitutively active murine caspase-1, p10 and p20 domain reversal, N-terminal p20 remnant removed) (from UniProt P29452 92-296) (enzyme)

B1: hCASP1_RV2_D108A (protein)
chain: MGNLSLPTTEEFEDDAIKKAHIEKDFIAFCSSTPDNVSWRHPTMGSVFIGRLIEHMQEYACSCDVEEIFRKVRFSFEQPDGRAQMPTTERVTLTRCFYLFPGHAYVHAAPVRDQTSGNYLNMQDSQGVLSSFPAPQAVQDNPAMPTSSGSEGNVKLCSLEEAQRIWKQKSAEIYPIMDKSSRTRLALIICNEEFDSIPRRTGAEVDITGMTMLLQNLGYSVDVKKNLTASDMTTELEAFAHRPEHKTSDSTFLVFMSHGIREGICGKKHSEQVPDILQLNAIFNMLNTKNCPSLKDKPKVIIIQACRGDSPGVVWFKD
ability to process pro-IL1β (data not shown) [2]: did not significantly affect their ability to process pro-IL1β

B2: hCASP1_RV2_D124A (protein)
chain: MGNLSLPTTEEFEDDAIKKAHIEKDFIAFCSSTPDNVSWRHPTMGSVFIGRLIEHMQEYACSCDVEEIFRKVRFSFEQPDGRAQMPTTERVTLTRCFYLFPGHAYVHDAPVRDQTSGNYLNMQASQGVLSSFPAPQAVQDNPAMPTSSGSEGNVKLCSLEEAQRIWKQKSAEIYPIMDKSSRTRLALIICNEEFDSIPRRTGAEVDITGMTMLLQNLGYSVDVKKNLTASDMTTELEAFAHRPEHKTSDSTFLVFMSHGIREGICGKKHSEQVPDILQLNAIFNMLNTKNCPSLKDKPKVIIIQACRGDSPGVVWFKD
ability to process pro-IL1β (data not shown) [2]: did not significantly affect their ability to process pro-IL1β

B3: hCASP1_RV2_D140A (protein)
chain: MGNLSLPTTEEFEDDAIKKAHIEKDFIAFCSSTPDNVSWRHPTMGSVFIGRLIEHMQEYACSCDVEEIFRKVRFSFEQPDGRAQMPTTERVTLTRCFYLFPGHAYVHDAPVRDQTSGNYLNMQDSQGVLSSFPAPQAVQANPAMPTSSGSEGNVKLCSLEEAQRIWKQKSAEIYPIMDKSSRTRLALIICNEEFDSIPRRTGAEVDITGMTMLLQNLGYSVDVKKNLTASDMTTELEAFAHRPEHKTSDSTFLVFMSHGIREGICGKKHSEQVPDILQLNAIFNMLNTKNCPSLKDKPKVIIIQACRGDSPGVVWFKD
ability to process pro-IL1β (data not shown) [2]: did not significantly affect their ability to process pro-IL1β

B4: CASP1_RV2_D143A (protein)
chain: MSEEDFLTDAIFEDDGIKKAHIEKDFIAFCSSTPDNVSWRHPVRGSLFIESLIKHMKEYAWSCDLEDIFRKVRFSFEQPEFRLQMPTADRVTLTKRFYLFPGHLLVCDVPIRAPSAETFVATEDSKGGHPSSSETKEEQNKEAGTFPGLTGTLKFCPLEKAQKLWKENPSEIYPIMNTTTRTRLALIICNTEFQHLSPRVGAQVDLREMKLLLEDLGYTVKVKENLTALEMVKEVKEFAACPEHKTSDSTFLVFMSHGIQEGICGTTYSNEVSDILKVDTIFQMMNTLKCPSLKDKPKVIIIQACRGEKQGVVLLKD
ability to process pro-IL1β (data not shown) [3]: did not significantly affect their ability to process pro-IL1β

B5: CASP1_RV2_D108A_D124A_D143A (protein)
chain: MSEEDFLTDAIFEDDGIKKAHIEKDFIAFCSSTPDNVSWRHPVRGSLFIESLIKHMKEYAWSCDLEDIFRKVRFSFEQPEFRLQMPTADRVTLTKRFYLFPGHLLVCAVPIRAPSAETFVATEASKGGHPSSSETKEEQNKEAGTFPGLTGTLKFCPLEKAQKLWKENPSEIYPIMNTTTRTRLALIICNTEFQHLSPRVGAQVDLREMKLLLEDLGYTVKVKENLTALEMVKEVKEFAACPEHKTSDSTFLVFMSHGIQEGICGTTYSNEVSDILKVDTIFQMMNTLKCPSLKDKPKVIIIQACRGEKQGVVLLKD
ability to process pro-IL1β (data not shown) [3]: did not significantly affect their ability to process pro-IL1β

B6: CASP1_RV2_D124A (protein)
chain: MSEEDFLTDAIFEDDGIKKAHIEKDFIAFCSSTPDNVSWRHPVRGSLFIESLIKHMKEYAWSCDLEDIFRKVRFSFEQPEFRLQMPTADRVTLTKRFYLFPGHLLVCDVPIRAPSAETFVATEASKGGHPSSSETKEEQNKEDGTFPGLTGTLKFCPLEKAQKLWKENPSEIYPIMNTTTRTRLALIICNTEFQHLSPRVGAQVDLREMKLLLEDLGYTVKVKENLTALEMVKEVKEFAACPEHKTSDSTFLVFMSHGIQEGICGTTYSNEVSDILKVDTIFQMMNTLKCPSLKDKPKVIIIQACRGEKQGVVLLKD
ability to process pro-IL1β (data not shown) [3]: did not significantly affect their ability to process pro-IL1β

B7: CASP1_RV2_D108A (protein)
chain: MSEEDFLTDAIFEDDGIKKAHIEKDFIAFCSSTPDNVSWRHPVRGSLFIESLIKHMKEYAWSCDLEDIFRKVRFSFEQPEFRLQMPTADRVTLTKRFYLFPGHLLVCAVPIRAPSAETFVATEDSKGGHPSSSETKEEQNKEDGTFPGLTGTLKFCPLEKAQKLWKENPSEIYPIMNTTTRTRLALIICNTEFQHLSPRVGAQVDLREMKLLLEDLGYTVKVKENLTALEMVKEVKEFAACPEHKTSDSTFLVFMSHGIQEGICGTTYSNEVSDILKVDTIFQMMNTLKCPSLKDKPKVIIIQACRGEKQGVVLLKD
ability to process pro-IL1β (data not shown) [3]: did not significantly affect their ability to process pro-IL1β
